Patent US11407811B2, “Fusion protein, preparation method therefor and use thereof” (JIANGSU RONGTAI BIOTECH CO., LTD., priority 2017, dated 2022)

What was measured:
[1] = system: human glioma U87; assay: MTT assay, proliferation of human glioma U87; format: cell-based
Procedure: The MTT assay was used to detect the inhibitory effect of the integrin blocker fusion protein obtained in Example 1 on the proliferation of various tumor cells, including melanoma cell B16F10, gastric cancer cell MGC-803, lung cancer cell A549, liver cancer cell Hep-G2, breast cancer cell MDA-MB-231, colon cancer cell HCT-116, human glioma U87, and cervical cancer cell Hela.
The tumor cells were cultured in a 5% CO2 incubator at 37° C. to a density of 90% or more, and collected by trypsinization. The cells were resuspended in the culture liquid and counted under a microscope. The cell concentration was adjusted to 3.0×10^4 cells/mL. The cell suspension was inoculated into a 96-well plate at 100 μL per well and cultured overnight in a 5% CO2 incubator at 37° C. […] After the cells were fully adhered, each dilution was added to a 96-well plate at 100 μL per well, respectively. […] 20 μL of 5 mg/mL MTT was added to each well of a 96-well plate, and incubation was continued for 4 hours. The medium was aspirated and 100 μL of DMSO per well were added to dissolve. The absorbance was measured at 570 nm with a microplate reader with a reference wavelength of 630 nm, and the proliferation inhibition (PI) was calculated. The formula is as follows: […]
(§1) where Ntest is the OD value of the test group and Ncontrol is the OD value of the blank control group.
The test was repeated 5 times independently. The results obtained from the test were calculated as mean±SD, and statistical t-test was performed. P<0.05 was considered as a significant difference, and P<0.01 was considered as an extremely significant difference.

[2] = system: human retinal vascular endothelial cell (HRCEC); assay: MTT assay, proliferation of human retinal vascular endothelial cell (HRCEC); format: cell-based; conditions: 48 hours
Procedure: The activity of the integrin blocker polypeptide to inhibit proliferation of human retinal vascular endothelial cells was examined by MTT assay. HRCEC cells were cultured in a 5% CO2 incubator at 37° C. to a density of 90% or more, and then collected by trypsinization. The cells were resuspended in the culture liquid and counted under a microscope. The cell concentration was adjusted to 3.0×10^4 cells/mL. The cell suspension was inoculated into a 96-well plate at 100 μL per well and cultured in a 5% CO2 incubator at 37° C. overnight. […] After the cells were fully adhered, each dilution was added to a 96-well plate at 100 μL per well, respectively. […] 20 μL of 5 mg/mL MTT was added to each well of a 96-well plate, and incubation was continued for 4 hours. The medium was aspirated and 100 μL of DMSO was added per well for dissolution. The absorbance was measured at 570 nm with a microplate reader with a reference wavelength of 630 nm, and the proliferation inhibition (PI) was calculated. The formula was as follows: […]
as §1
The test was repeated 5 times independently. The results obtained from the test were calculated as mean±SD, and statistical t-test was performed. P<0.05 was considered as significant difference, and P<0.01 was considered as extremely significant difference.

[3] = system: neovascularization in premature rat retinopathy model; assay: Neovascularization in premature rat retinopathy model (fluctuating oxygen-induced); format: in vivo
Procedure: A fluctuating oxygen-induced animal model was adopted, and newborn rats (within 12 hours) spontaneously delivered on the same day were randomly divided into three groups: an oxygen model group, an oxygen treatment group, and a normal control group. The oxygen model was subdivided into three model subgroups, which were placed in a semi-closed oxygen chamber made of plexiglass together with the treatment group. The medical oxygen was introduced into the chamber, and the oxygen concentration was adjusted to 80%±2% with an oxygen meter. After 24 hours, nitrogen gas was introduced into the oxygen chamber, and then the oxygen concentration was rapidly adjusted to 10%±2% and maintained for 24 hours. […] The oxygen concentration was monitored 8 times a day, and the ambient temperature in the chamber was controlled to 23° C.±2° C. […]
On day 14, after the rats was sacrificed with ether anesthesia, the eyeballs were removed and fixed in a 40 g/L paraformaldehyde solution for 24 hours. […] 10 sections were randomly selected from each eyeball to be stained with hematoxylin and eosin, and the nucleus of vascular endothelial cells that broke through the inner limiting membrane of the retina was counted (only the nucleus of vascular endothelial cells closely related to the inner limiting membrane were counted), and the average number of cells per section per eyeball was counted.

B1: Protein II: IgG2-Fc linked to antiangiogenesis polypeptide EDSM-Y via a flexible linker; SEQ ID NO: 17 (protein)
chain: ERKCCVECPPCPAPPVAGPSVFLFPPKPKDTLMISRTPEVTCVVVDVSHEDPEVQFNWYVDGVEVHNAKTKPREEQFNSTFRVVSVLTVVHQDWLNGKEYKCKVSNKGLPAPIEKTISKTKGQPREPQVYTLPPSREEMTKNQVSLTCLVKGFYPSDISVEWESNGQPENNYKTTPPMLDSDGSFFLYSKLTVDKSRWQQGNVFSCSVMHEALHNHYTQKSLSLSPGKGGGGSGGGGSGGGGSFQPVLHLVALNSPLSGGMRGIRGADFQCFQQARAVGLAGTFRAGGGGRGD
- A570 nm/A630 nm ([1]; dose 1 μg/mL): 0.6788 ± 0.0374
- PI (%) ([1]; dose 1 μg/mL): 3.01%
- A570 nm/A630 nm ([1]; dose 2 μg/mL): 0.6523 ± 0.0405
- PI (%) ([1]; dose 2 μg/mL): 6.80%
- A570 nm/A630 nm ([1]; dose 4 μg/mL): 0.6021 ± 0.0233
- PI (%) ([1]; dose 4 μg/mL): 13.97%
- A570 nm/A630 nm ([1]; dose 8 μg/mL): 0.5423 ± 0.0357
- PI (%) ([1]; dose 8 μg/mL): 22.52%
- A570 nm/A630 nm ([1]; dose 16 μg/mL): 0.5006 ± 0.0282
- PI (%) ([1]; dose 16 μg/mL): 28.48%
- A570 nm/A630 nm ([1]; dose 32 μg/mL): 0.4652 ± 0.0249
- PI (%) ([1]; dose 32 μg/mL): 33.53%
- A570 nm/A630 nm ([1]; dose 64 μg/mL): 0.4080 ± 0.0366
- PI (%) ([1]; dose 64 μg/mL): 41.71%
- PI (%) ([1]; dose 64 μg/mL, listed as protein II): about 50%
- A570 nm/A630 nm ([1]; dose 128 μg/mL): 0.3143 ± 0.0279
- PI (%) ([1]; dose 128 μg/mL): 55.09%
- A570 nm/A630 nm ([1]; dose 256 μg/mL): 0.2222 ± 0.0316
- PI (%) ([1]; dose 256 μg/mL): 68.25%
- A570 nm/A630 nm ([2]; 1 μg/mL): 1.1122 ± 0.0385
- PI ([2]; 1 μg/mL): 17.44%
- A570 nm/A630 nm ([2]; 2 μg/mL): 1.0002 ± 0.0405
- PI ([2]; 2 μg/mL): 25.75%
- A570 nm/A630 nm ([2]; 4 μg/mL): 0.9287 ± 0.0288
- PI ([2]; 4 μg/mL): 31.06%
- A570 nm/A630 nm ([2]; 8 μg/mL): 0.8999 ± 0.0320
- PI ([2]; 8 μg/mL): 33.20%
- A570 nm/A630 nm ([2]; 16 μg/mL): 0.8225 ± 0.0291
- PI ([2]; 16 μg/mL): 38.94%
- A570 nm/A630 nm ([2]; 32 μg/mL): 0.7348 ± 0.0277
- PI ([2]; 32 μg/mL): 45.45%
- A570 nm/A630 nm ([2]; 64 μg/mL): 0.5748 ± 0.0314
- PI ([2]; 64 μg/mL): 57.33%
- A570 nm/A630 nm ([2]; 128 μg/mL): 0.3628 ± 0.0282
- PI ([2]; 128 μg/mL): 73.07%
- A570 nm/A630 nm ([2]; 256 μg/mL): 0.1495 ± 0.0314
- PI ([2]; 256 μg/mL): 88.90%
- Nucleus number (nucleus count of vascular endothelial cells) ([3]; 100 μg intravitreal injection on day 7, counted on day 14, per section per eyeball): 7.238 ± 1.194
- nucleus counts of retinal vascular endothelial cells ([3]; intravitreal injection, dose of 100, day 14, oxygen model group 27.452±2.110): 7.238±1.194
